Literature values, collected in paper PMC4776139, “Extended string-like binding of the phosphorylated HP1α N-terminal tail to the lysine 9-methylated histone H3 tail” (Scientific Reports, 2016).

System: H3K9me
Settings: effect of N-terminal tail phosphorylation
Description: In mice there are three HP1 isoforms, HP1α, HP1β and HP1γ with highly conserved CDs that are thought to share a similar structural feature to interact with H3K9me. By contrast, the CDs of these isoforms are connected to a less-conserved N-terminal tail, which is hypothesized to contribute to their isoform-specific function. In HP1α, in particular, there are four successive serine residues in the N-terminal tail that are constitutively phosphorylated in vivo[13]. […] Howeve ...

B1: HP1α: mouse heterochromatin protein 1 isoform; chromodomain with N-terminal tail (protein, UniProt Q61686 1-191, looked up)
Chromobox protein homolog 5: MGKKTKRTADSSSSEDEEEYVVEKVLDRRMVKGQVEYLLKWKGFSEEHNTWEPEKNLDCPELISEFMKKYKKMKEGENNKPREKSEGNKRKSSFSNSADDIKSKKKREQSNDIARGFERGLEPEKIIGATDSCGDLMFLMKWKDTDEADLVLAKEANVKCPQIVIAFYEERLTWHAYPEDAENKEKESAKS
- affinity for H3K9me, in words: its affinity becomes much stronger when the N-terminal tail is phosphorylated
